assay: soluble on expression in E. coli; label from the status in PepcDB or PDB records

| Sequence | soluble on expression in E. coli |
| --- | --- |
| MFTQQRLRPNTQELLKETNHLCEAFAISESILARYQRNNRQLSESEKKAFASLLLRVPHDFLTETVASLGTSKTSSIGPTTDLGSLIDNVFGFGKPLKDVFQLLNQELGNCLNSPRCRVYYLDPTDNLLKDPVYATASTLDETTPLGKAVLTGIQREIAGTLYLPLSFEGKVIACVESAWGSPEKGDKRRIKETLQFVACAMHNAIESERLRWNKEKAEAMLEMATQLARDNLDEAVLANSIMNTAKVLTESDRCSIFLVKDDTLEAHFEDGNIVAIPIATGIAGYVAQTGQTVKISDAYSDDRFNREVDKATGYRTKTILCMPVTYEGSIVAVAQLINKLDMVTESGLRLPRTFGKRDEELFQTFSMFAGASLRNCRINEKLINEKRKSDAILDVVTLLSNTDIRDVDGIVRHVLHGAKRLLYADRSALFLVDKERNELYSRIADSVAGKEIRFPCGQGIAGIVASTGIGENILDAYQDPRFNREVDKQLGYRTQTLLCEPIVLNGEILAVVQLVNKLNEAGEVTVFTESDRETFRVFSLFAGISINNSHLLEFAVKAGREMMELNENRALAGGRTGSLRNIKRPLAITEAERQAVRDINLAHLDITSIDFDLFYLRENMELPLDAAAAVAYRLIVGTGLPQKFRCRDDTLLNFILQCRKKYRNVPYHNFYHVVDVCQTVYTFLYKGAVCEKLTELDCFVLLVTALVHDLDHMGLNNSFYLKTDSPLGILSSASGNASVLEVHHCNLAVEILSDPDSDVFEGLDAADRTLAYRSMIDCVLATDMAKHGKSLESFLSVLGNPETSEQRIAELTMQIVLKAGDVSNVTKPFDISRLWAMAVTEEFYRQGDMEKEKGVEVLPMFDRSKNTELAKGQIGFIDFVAGPFFKKIVSASLTGMQWTVERVESNRLEWQRSLDAK | not soluble |
| DGMTKLTFGGHPFLLGFEQLERLVERTAKTASEGYPPFNIEAVAENAYRITLAVAGFREDDIAITVEDRQLVVRGRQAEDPAERVFLHRGIASRAFQRSFVLADGVEVAGATMEHGLLHIDLHRQVPQAVVQTIPIGRNR | not soluble |
| EDWNEIDPIKKKDLHHSNGEEKAQSMETLPPGKVRWPDFNQEAYVGGTMVRSGQDPYARNKFNQVESDKLRMDRAIPDTRHD | soluble |
| MTITPNKLTLKIGRAEGRPGDTVEIPVNLYGVPQKGIASGDFVVSYDPNVLEIIEIEPGELIVDPNPTKSFDTAVYPDRKMIVFLFAEDSGTGAYAITEDGVFATIVAKVKEGAPEGFSAIEISEFGAFADNDLVEVETDLINGGVLVTNKPVIEGYKVSGYILPDFSFDATVAPLVKAGFKVEIVGTELYAVTDANGYFEITGVPANASGYTLKISRATYLDRVIANVVVTGDTSVSTSQAPIMMWVGDIVKDNSINLLDVAEVIRCFNATKGSANYVEELDINRNGAINMQDIMIVHKHFGATSSDYDAQLEHHHHHHMRGSHHHHHHTDLRADKASSIELKFDRNKGEVGDILIGTVRINNIKNFAGFQVNIVYDPKVLMAVDPETGKEFTSSTFPPGRTVLKNNAYGPIQIADNDPEKGILNFALAYSYIAGYKETGVAEESGIIAKIGFKILQKKSTAVKFQDTLSMPGAISGTQLFDWDGEVITGYEVIQPDVLSLGDEPF | soluble |
| MSLTAPLPYTRAANLPALLRERILILDGAMGTMIQRYKLTEAQYRGERFASHPVDVKGNNELLLLTRPEVIREIHEQYLAAGADLIETNTFGATTVAQEDYKMAELAYEMNVVAARLAREACDKYSTPDKPRFVAGAFGPTPKTASISPDVNDPGARNISFDQLRDAYYEQGKALLEGGADVFLVETIFDTLNAKAALFAIDQLFEDSGERVPVMISGTVTDASGRILSGQTVEAFWNSLRHAKPITFGLNCALGAALMRPYIAELAKICDTAVSCYPNAGLPNPMSDTGFDETPEVTSSLVDEFAAAGLVNLVGGCCGTTPEHIRAIAERVAQRKPRAWPGQYREAAEGHHHHHH | soluble |
| MGSDKIHHHHHHMAIYLEMPKLIHEFPFRSLSNEGEVLTTPHWHKEIEILLITEGVVNLFINDKPMQLKKGEIVIIKGGDIHYILPSPGSERLVFQFDISFFNDLILLNEEKESLINLFSSIKKCSRDWSAKIRKSVFDILIDIYNEDLYKIEGYSYAIKGKMYNLIPILYRQIPREIEENTVEYEINSKEILERLNNIFKYVEKNYKQPIKLEDVSYEVGFSVYYFTKFFKKNTGKTFITFLNEYRLEKAKWILLNNNISIVDLVEEVGFGSTKTFYRVFKEKIGVSPLEFKKRYNSLEKKGSVSK | not soluble |
| RTGRELLDMCRASGHSVAGLMMRNELTWRGAAEIEQGLDRIWEVMQECVARGCGIGHPEADGDLPGPLKVRRRAPELYRALTQRAERTLSDPLSVMDWVNLYAMAVNEENAAGGRVVTAPTNGAAGIIPAVLHYYDRFVPAANRAGVHDFLLTAAAIGLLYKYNASLSGAEVGCQGEVGVACSMAAGALAAVQGGSVEQVENAAEIGMEHNLGLTCDPVGGLVQIPCIERNAMASVKAVNAARMALRGDGHHYVSLDSVIKTMRETGADMKTKYKETARGGLAVN | not soluble |
| MVAERNKDGRVVFDRGLRAQMMAIDGTWRRPCLIEDVSELGAKLTVEGTVEGLNLKEFFLLLSSTGLAYRRCELSWINGDQIGVTFLRLDRKKKRAAQVENA | not soluble |
| MSLAAGADAGPGPEPCATLVQGKFFGYFSAAAVFPANASRCSWTLRNPDPRRYTLYMKVAKAPVPCSGPGRVRTYQFDSFLESTRTYLGVESFDEVLRLCDPSAPLAFLQASKQFLQMRRQQPPQHDGLRPRAGPPGPTDDFSVEYLVVGNRNEGHHHHHH | not soluble |
| QLNPYLRLKVRRDHIIDDALVRLEMIAMENPADLKKQLYVEFEGEQGVDEGGVSKEFFQLVVEEIFNPDIGMFTYDESTKLFWFNPSSFETEGQFTLIGIVLGLAIYNNCILDVHFPMVVYRKLMGKKGTFRDLGDSHPVLYQSLKDLLEYEGNVEDDMMITFQISQTDLFGNPMMYDLKENGDKIPITNENRKEFVNLYSDYILNKSVEKQFKAFRRGFHMVTNESPLKYLFRPEEIELLICGSRNLDFQALEETTEYDGGYTRDSVLIREFWEIVHSFTDEQKRLFLQFTTGTDRAPVGGLGKLKMIIAKNGPDTERLPTSHTCFNVLLLPEYSSKEKLKERLLKAITYAKGFGML | soluble |
| MSALSTLKVTFIVSPPSFPCFHTPGPRRKAAPFRFTGQSAYPLWYHGGMAEAFCPVYAALNLLQEKWTLHIIRALLEGPKGFNELSRAVGGVNPATLSQRLDQLVRLGVVEKRVESYMPPRTRYSLTPAGEELEEVVQAIERWARRHLKAPDPAR | soluble |
| ASEKLRSKLMSADEAAQFVNHGDKVGFSGFTGAGYPKALPTAIANRAKEAHGAGNDYAIDLFTGASTAPDCDGVLAEADAIRWRMPYASDPIMRNKINSGSMGYSDIHLSHSGQQVEEGFFGQLNVAVIEITRITEEGYIIPSSSVGNNVEWLNAAEKVILEVNSWQSEDLEGMHDIWSVPALPNRIAVPINKPGDRIGKTYIEFDTDKVVAVVETNTADRNAPFKPVDDISKKIAGNFLDFLESEVAAGRLSYDGYIMQSGVGNVPNAVMAGLLESKFENIQAYTEVIQDGMVDLIDAGKMTVASATSFSLSPEYAEKMNNEAKRYRESIILRPQQISNHPEVIRRVGLIATNGLIEADIYGNVNSTNVSGSRVMNGIGGSGDFTRNGYISSFITPSEAKGGAISAIVPFASHIDHTEHDVMVVISEYGYADLRGLAPRERVAKMIGLAHPDYRPLLEEYYARATSGDNKYMQTPHDLATAFDFHINLAKNGSM | not soluble |
| MAEVITVKQTNMENIYECEFNDGSFRLCTRNLVPNFNVYGERLIKYEGVEYREWNAFRSKLAGAILKGLKTNPIRKGTKVLYLGAASGTTISHVSDIIELNGKAYGVEFSPRVVRELLLVAQRRPNIFPLLADARFPQSYKSVVENVDVLYVDIAQPDQTDIAIYNAKFFLKVNGDMLLVIKARSIDVTKDPKEIYKTEVEKLENSNFETIQIINLDPYDKDHAIVLSKYKG | soluble |
| SRNICYDAFVSYSERDAYWVENLMVQELENFNPPFKLCLHKRDFIHGKWIIDNIIDSIEKSHKTVFVLSENFVKSEWCKYELDFSHFRLFDENNDAAILILLEPIEKKAIPQRFCKLRKIMNTKTYLEWPMDEAQREGFWVNLRAAIKS | soluble |
| MGSDFDHLVNSLSDVELLNLFIQSCSQTTINGVPVPRFPPEEIQKQFVGASYEHALYEAYLFYRHIKEYAQNLGVPLNKESKVLDFGCGWGRIIRFLFKDASDQNLLGIDVDPAMITLCNETLGRGIYKTASPHPPVEFISDNSLDIIFAYSVFSHLSEATAENWVKEFSRVLRPGGIFIATTQARYFLDFCQQFQEHPELIQTGWHKTLSQAFPDIHRAISDYENGKFVHSPTGAGDVRNSSFYGETVIPRTYIENHYEKYLKLQDFFDDVNRLPQALFVLQKILEHHHHHH | soluble |
| MLSDIQHDQFGFIKGCIISVIWLSLSRTLNRDQLNLDRFEFWQPTSQLLVLDVCLFDAFALEHHHHHH | not soluble |
| MNMVGHSYGNIAIVYYMLQHGSDTSLPKLVKQVDIAGHFNGIIGMDEPEENSLDGEGKPTSMTGSYEELLSLGDNYPQGQVEVLNIYGNTGKESDERVTNLSSQSLAYLLKGHVKSYQEKKITGLNGQHSKLHETTLVDKPLNAFLWGK | not soluble |
| MRGSHHHHHHTDPALRADIIFYHPTFDTQWWIEALRKAIPQARVRAWKSGDNDSADYALVWHPPVEMLAGRDLKAVFALGAGVDSILSKLQAHPEMLNPSVPLFRLEDTGMGEQMQEYAVSQVLHWFRRFDDYRIQQNSSHWQPLPEYHREDFTIGILGAGVLGSKVAQSLQTWRFPLRCWSRTRKSWPGVQSFAGREELSAFLSQCRVLINLLPNTPETVGIINQQLLEKLPDGAYLLNLARGVHVVEDDLLAALDSGKVKGAMLDVFNREPLPPESPLWQHPRVTITPHVAAITRPAEAVEYISRTIAQLEKGERVCGQVDRARGYGLCGR | soluble |
| MFQNHKIMDLEVRTRLDDNRNLREVRIIPLGSGYNVGIVYSKEISDISDLNPKRILGIDMGVRNIVTIGNNMSEEGIAVKGGVLRSINQYFNKELSKLKSVSDRQNDGKGNTRRIKNLYAVRNGKIKDIMHKLSRAIIRYALSMNVDTIVIGHSQGWKHTPDMGKKNNQNFVQIPFNILIEQIRYKGQEAGINVIVLDESYTSVCSFIDNESIEKHETYMGKRIKRGIFRSHKGILIHADLNALYNTIKKAISEAFADGIEGIGLYPRSLSIREMITSKGLRLEHHHHHH | soluble |
| MATLEQKLTVLISDTIESMGYELVGVECQHAGRFLTVRLYIDKEGGVTIDDCSDVSRQVSAIFDVEDPISDKYNLEVSSPGLDRPLFTLAHYARFVGREMVIHLRIPMFDRRKWQGKLTKVDGDLISLEIENNGEHQFIFSNIQKANLIPVFDF | not soluble |
| MFKVDRYFDLTAPIYPYMPVWPSNPPVELKPIVTVPKDGYLAEIIEASTHTGTHIDAPAHMIEGGTTVDDLDLASLIGTGYCLKVLPDGHTIRSTHLAEKWQGIYNNSILLIETGWYKKRGYTREFQYDFPGLSEDAADFLIQKHVKAVGIDTLGIEPYENTDFRVHKKLLRSGIPIIEDLYGLDSLEEGRPYLIIALPLRLKGTSGSMARVVAAETELEHHHHHH | not soluble |
